# B1: LINE1-mini (parent)
# chain: GGCAGAGCUCAACACAGCGUGGCAAAGUGGCUGUGGCUAGACUGCC
# Variants of: B1
# Assay: self-cleavage, relative activity (ratio to wild type); higher = more cleavage; in vitro, sequencing; the parent is a self-cleaving ribozyme
row,Variant,self-cleavage
1,GGCAGAGCUCAACGCAGCAUGGCAAAGUGGCUGUGGCUAGACUGCC [A14G G19A],1.03
2,GGCAGAGCUCAACACACCGUGGCAAAGUGGUUGUGGCUAGACUGCC [G17C C31U],0.16
3,GGCCGAGCUCAACCCAGCGUGGCAAAGUGGCUGUGGCUAGACUGCC [A4C A14C],0.1
4,GGGAGAGCUCAACACAGCGUGGCAAAGUCGCUGUGGCUAGACUGCC [C3G G29C],0.43
5,GGCAGAGCUCAACACAACGUGGCAAAGUGGCUGUGACUAGACUGCC [G17A G36A],0.1
6,GGCAGAGCUCAACACAGCGUGGCACAGUGGCUGUGGCUAGACUCCC [A25C G44C],0.23
7,GGCAGUGCUCAACACAGCGUGGCAAAUUGGCUGUGGCUAGACUGCC [A6U G27U],0.58
8,GGCAGAGCUCAACAGAGCGUGGCAAAGUGGCUCUGGCUAGACUGCC [C15G G33C],0.25
9,GGCAGAGCUCAACACAGCGUGGCAAAAUGGCUGGGGCUAGACUGCC [G27A U34G],0.32
10,GGCCGAGCUCAACACAGCGUGGCUAAGUGGCUGUGGCUAGACUGCC [A4C A24U],0.17
11,GGGAGAGCUCAACACAGCGUGGCAAAGUGGGUGUGGCUAGACUGCC [C3G C31G],0.07
12,GGCCGAGCUCAACACAGCGUGUCAAAGUGGCUGUGGCUAGACUGCC [A4C G22U],0.52
13,GGCAGAUCUCAACACAACGUGGCAAAGUGGCUGUGGCUAGACUGCC [G7U G17A],0.08
14,GGCAGAGCUCAACACAGCGUGGAAAAGUGGCUGUGGUUAGACUGCC [C23A C37U],0.03
15,GGCAGAGCUCAACAAAGCGUGGCAAAGUGGCAGUGGCUAGACUGCC [C15A U32A],0.06
16,GGCAGAGCUCAACACAGCGUGGCAAAGUGGGUGUGGCUAGACCGCC [C31G U43C],0.05
17,GGCAGAGCUCAACAUAGCGUGGCAAAGUGGCUGUGGCUAGACUGUC [C15U C45U],0.79
18,GGCAGAGCUCAACACAGCGUGGCAAAGUGGCUGUCGCUAGACUGCU [G35C C46U],0.06
19,GGCAGAGCUCAACACAGCGUGGCGAAGUGGCUGUGGCUACACUGCC [A24G G40C],0.18

row,Variant,self-cleavage
1,GGCAGAGAUCCACACAGCGUGGCAAAGUGGCUGUGGCUAGACUGCC [C8A A11C],0.05
2,GGCAGAGCUUAACACAGCGUGGCAAAGUGGCUGAGGCUAGACUGCC [C10U U34A],0.14
3,GACAGAGCUCAACACAGCGUGGCAAAGUGGCUGUGGCUGGACUGCC [G2A A39G],0.22
4,GGCAGUGCUCAACACAGCGUGGCAAAGUGGCUGUGGCUAGACUGCC [A6U],0.7
5,GGCAGAGCUCAACAGAGCGUGGCAAAGUGGCUGUGGCUUGACUGCC [C15G A39U],0.04
6,GUCAGAGCUCAACACAGCGUGGCAAAGUGGCUGUGGCUAGACUGCU [G2U C46U],0.06
7,GGCAGAGCUCAACACAGCGUGGGAAAGUGGCGGUGGCUAGACUGCC [C23G U32G],0.21
8,GGCAGAGAUCAACACAGCGUCGCAAAGUGGCUGUGGCUAGACUGCC [C8A G21C],0.21
9,GGCAGAGCUCAACUCAGCGUGGCAAAGUGGCUGUGGCUAGACUUCC [A14U G44U],0.06
10,GGCAGAGCUCAACACAGCGUCGCAAAGUGGCUGUGGCGAGACUGCC [G21C U38G],0.02
11,GGCAGAGCUCUACACCGCGUGGCAAAGUGGCUGUGGCUAGACUGCC [A11U A16C],0.02
12,GGCAGAGCUCAACACAGCGUGGCAAAGUGGCUGUGGCCAGAGUGCC [U38C C42G],0.15
13,GGCAGAGCUCAACACAGCGUGGCUAAGUGGCUGUGGCUAGAUUGCC [A24U C42U],0.4
14,GGCAGAGCUCAACACAGCGUCGCAACGUGGCUGUGGCUAGACUGCC [G21C A26C],1.03
15,GGCUGAGCUCAACACAGCGUGGCAAAAUGGCUGUGGCUAGACUGCC [A4U G27A],0.19
16,GGCAGACCUCCACACAGCGUGGCAAAGUGGCUGUGGCUAGACUGCC [G7C A11C],0.04
17,GGAACAGCUCAACACAGCGUGGCAAAGUGGCUGUGGCUAGACUGCC [C3A G5C],0.31
18,GGCAGAGGUCAACACAGCGUGGCAAAGUGGCUGUGGCUAGACCGCC [C8G U43C],0.02
19,GGCAGAGCUCAACACAGCGUGGCAAAGUAGCUGUGGCUAGAGUGCC [G29A C42G],0.04

row,Variant,self-cleavage
1,GGUAGAGCUCAACACAGCGUGGCAAAGUGGCAGUGGCUAGACUGCC [C3U U32A],0.07
2,GGCAGAGCUCAACACAGCGUGGCAAAAUGGCUAUGGCUAGACUGCC [G27A G33A],0.1
3,GGCAGAGCCCAACACAGCGUGGCAAAGUGGCUGCGGCUAGACUGCC [U9C U34C],0.04
4,GGCAGAGCUAAACACAUCGUGGCAAAGUGGCUGUGGCUAGACUGCC [C10A G17U],0.05
5,GGCGGAGCUCAACACAGCGUGGCAAAGUGGCUGUGGCUAGACAGCC [A4G U43A],0.12
6,GGCAGAGCUCAACACAGCGUGGCAAAGUGGCUGUGGCUAGACUUCU [G44U C46U],0.12
7,GGCAGAGCUUAACAAAGCGUGGCAAAGUGGCUGUGGCUAGACUGCC [C10U C15A],0.06
8,UGCAUAGCUCAACACAGCGUGGCAAAGUGGCUGUGGCUAGACUGCC [G1U G5U],0.09
9,GGCAGAGCGCAACACAGCUUGGCAAAGUGGCUGUGGCUAGACUGCC [U9G G19U],0.1
10,GGCGGAGCUCAUCACAGCGUGGCAAAGUGGCUGUGGCUAGACUGCC [A4G A12U],0.11
11,UGCAGAGCUCAACCCAGCGUGGCAAAGUGGCUGUGGCUAGACUGCC [G1U A14C],0.03
12,GGCAGAGCUCAAUACAGCGUGGCAAAGUGGAUGUGGCUAGACUGCC [C13U C31A],0.05
13,GGCAGAGCGCAAUACAGCGUGGCAAAGUGGCUGUGGCUAGACUGCC [U9G C13U],0.11
14,GGCAGAGCUCAACACAGCGGGGCAAAGUGGCUGUGGCUAGGCUGCC [U20G A41G],0.19
15,UGCAGAGCUCAACACAGCGUGGCAAAGCGGCUGUGGCUAGACUGCC [G1U U28C],0.24
16,GGCAGAGCUCAACACAGCGUGGCAAACUGGCUGUUGCUAGACUGCC [G27C G35U],0.07
17,GGCAGAGCUCAACGCAGCGCGGCAAAGUGGCUGUGGCUAGACUGCC [A14G U20C],0.78
18,GGCAGAGCUCAACAUAGCGUGGCAAAGUGGCUGUGGCAAGACUGCC [C15U U38A],0.64

# — the RNAGym collection of RNA variant scans (doi:10.7554/elife.90254)
